Data from doi:10.1101/2022.05.06.490860 (bioRxiv, 2022).

Key:
[1] = target: KatA, dimer form (KatA-2) (B. subtilis) (UniProt P26901); assay: SEC
[2] = target: YjoB-NTD (residues 1-159), oligomer form NTD-1 (B. subtilis 168) (UniProt O34703); assay: crystal structure
crystal structure = target: the molecule itself; assay: crystal structure
[3] = target: T1, KatA, monomeric form (KatA-1) (B. subtilis, UniProt P26901 1-483); assay: SEC
T1 sequence (looked up): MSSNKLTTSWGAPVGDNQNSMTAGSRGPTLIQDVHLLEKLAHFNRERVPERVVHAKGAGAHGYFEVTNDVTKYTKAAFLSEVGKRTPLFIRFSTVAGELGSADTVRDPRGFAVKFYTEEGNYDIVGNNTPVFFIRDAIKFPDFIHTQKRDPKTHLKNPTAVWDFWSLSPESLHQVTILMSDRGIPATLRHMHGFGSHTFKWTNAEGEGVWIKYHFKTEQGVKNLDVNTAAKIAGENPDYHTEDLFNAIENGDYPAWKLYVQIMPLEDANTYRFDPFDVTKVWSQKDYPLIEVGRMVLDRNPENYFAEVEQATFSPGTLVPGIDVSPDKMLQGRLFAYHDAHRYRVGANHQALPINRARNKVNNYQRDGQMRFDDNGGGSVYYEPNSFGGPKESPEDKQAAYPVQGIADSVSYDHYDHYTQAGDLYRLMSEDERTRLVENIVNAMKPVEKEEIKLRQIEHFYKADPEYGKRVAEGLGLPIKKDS

SEC = target: the molecule itself; assay: SEC

KatA, dimer form (KatA-2) (from UniProt P26901 1-483) (enzyme)
stoichiometry N [1]: 2

YjoB-NTD (residues 1-159), oligomer form NTD-1 (from UniProt O34703 1-159) (domain or fragment)
stoichiometry N [2]: 12

B1: Bacillus subtilis YjoB (residues 1-423) (natural protein, B. subtilis 168, UniProt O34703 1-423, looked up)
chain: MTNIPFIYQYEEKENERAAAGYGTFGYLITRIEETLYDQYGVFYELYASDDPNTEYWELLVEDVRSGSLEPEHVAYIFEKLEKKTFAYDEDEKEPDYTVHKSIRNSVYAYPEKGVAFARIPYFQDGSIMSFDCLFAVNDEKMRAFLEGVRPRLWEKSKRKVTVFTDGDGGTSREQEAIVREVQRSQVIMNPLLKKEIYRSIDQFFHSDKSFYQTYDIPYKRGILLYGPPGNGKTTLVKSIAGSIDAPVAYWQITEFTSSETIEEVFQAARRLAPAVLVIEDIDSMPEDVRSFFLNTLDGATSKEGLFLIGTTNYPEEIDPGLMNRAGRFDRAYEIGLPDEELRLEYMKMRGFGIFLSEGEIKNAAKLTEGFSFAQLGELYVSSALQWHQEGNHHIETMVKDMTGEQRKSQRGSWMERNKVGFH
stoichiometry N (crystal structure): 6 | binding result [3]: binds

B2: YjoB-AAA domain (residues 159-423) (domain or fragment, B. subtilis 168, UniProt O34703 159-423, looked up)
chain: RKVTVFTDGDGGTSREQEAIVREVQRSQVIMNPLLKKEIYRSIDQFFHSDKSFYQTYDIPYKRGILLYGPPGNGKTTLVKSIAGSIDAPVAYWQITEFTSSETIEEVFQAARRLAPAVLVIEDIDSMPEDVRSFFLNTLDGATSKEGLFLIGTTNYPEEIDPGLMNRAGRFDRAYEIGLPDEELRLEYMKMRGFGIFLSEGEIKNAAKLTEGFSFAQLGELYVSSALQWHQEGNHHIETMVKDMTGEQRKSQRGSWMERNKVGFH
stoichiometry N (SEC): 6
